The record followed here is patent EP4796130A1, “ANTI-TISSUE FACTOR ANTIBODY-DRUG CONJUGATE COMPRISING CAMPTOTHECIN DERIVATIVE” (Celltrion, Inc., priority 2023, dated 2025).

This test deals with HPAFII (human pancreatic cancer xenograft model). The test is described as follows: In vivo antitumor efficacy, HPAFII xenograft model. Details: species or system CB17 SCID mice. The following applies: 3 mg/kg i.v. QW × 3.

B1: Isotype-MMAE: ADC in which anti-influenza A antibody (Navivumab, P23) is conjugated with MMAE (MC-vc-PAB-MMAE); DAR 4 (conjugate, chains of the INN, looked up)
VH: QVQLVQSGAEVKKPGASVKVSCKTSGYSFSTYGVSWVRQAPGQGPEWVGWISAYTGITDYAQKFQGRVTLTTDATTATAFLDLRSLRPDDTATYFCARDKVQGRVEVGSGGRHDYWGQGTLVIVSS
VL: EVVLTQSPGTLALPPGERATLSCRASHRVGSTYIAWYQQKSGQAPRRLIYGASNRATDIPDRFSGSGSGTDFTLTIRRLEPEDSAVYYCQQFSVSPWTFGQGTRVEIK
modifications: mc-vc-PAB-MMAE payload, DAR 4
In the case of B1, the “Tumor Volume” value is, setting by setting: (day 0, mean ± SEM) 235 ± 17 mm^3; (day 4, mean ± SEM) 357 ± 38 mm^3; (day 7, mean ± SEM) 424 ± 46 mm^3; (day 11, mean ± SEM) 603 ± 79 mm^3; (day 14, mean ± SEM) 799 ± 98 mm^3; (day 28, mean ± SEM) 2,142 ± 164 mm^3. Besides, where the note is “day 28 vs control group G1”, the T/Cweight stood at 90.45%. In addition, the TGI (day 28 vs control group G1) is 10.01%. Moreover, the “Tumor Weights on Day 28” value (mean ± SEM) turned out to be 1.933 ± 0.177 g. The T/C (tumor volume on day 28 vs control group G1) is reported as 90.99%.

Usually TGI stands for the reduction of tumour growth relative to the control group. A higher TGI goes with a stronger effect on the tumour. By T/C is commonly meant the result in the treated group divided by that in the control group, in per cent.
